# Measured values: the RNAGym collection of RNA variant scans (doi:10.7554/elife.90254)
# B1: OR4K15 (parent)
# chain: GUUAACGGUCAUAGGCCAUGGAAACUAGGAGCACCAUUUCGCUGCCAGUGAAGAAAUGAACAAAGAAAAUCUGGGCCAGGCAGGCAUCAAAAGAAAUAGUCUUGCGCUCAACCAGAAAGUCUGUAAUCAUUUUAAGGGUA
# Variants of: B1
# Assay: self-cleavage, relative activity (ratio to wild type); higher = more cleavage; in vitro, sequencing; the parent is a self-cleaving ribozyme
row,Variant,self-cleavage
1,A13U C105U,0.23
2,A18G A129G,1.25
3,G15A A129G,1.19
4,G15U A82U,0.23
5,G14A A69G,1.03
6,A13G G93U,0.86
7,A18G A33U,1.92
8,A18G U102C,1.64
9,A18G U102A,1.13
10,A18G G138A,1.27
11,C16U A22C,1.53
12,C16U A22U,1.32
13,A13U A51G,1.53
14,A13G U97A,1.2
15,A18G A78G,0.33
16,G15U G136A,2.24
17,G14A A86G,1.02
18,A18U A51U,1.24
19,A18U A51G,1.4
20,A18G A92G,1.3
21,A18G A117G,0.59
22,A18U A33G,0.61
23,A18U A33C,1.61
24,A18G A59U,1.65

row,Variant,self-cleavage
1,A18G A59C,1.7
2,A18G A59G,1.19
3,C16U A111G,0.05
4,G14A A64G,1.06
5,A18G A98G,0.59
6,A13U A33C,2.21
7,G15A U103C,0.82
8,C16G A47U,0.8
9,C17U A95G,2.06
10,A13U C121A,1.92
11,A18U A54G,1.28
12,A18C U39A,1.48
13,G14U A89G,1.39
14,G14A A140G,1.89
15,A18G A30G,0.88
16,A18G A30U,1.01
17,C16U U57C,1.14
18,C17U A135G,1.05
19,A18G A68G,1.16
20,A13U A60U,2.26
21,G15A A33G,0.94
22,A13U A59G,0.41
23,C16U A94U,1.89
24,G15A A86G,1.6

row,Variant,self-cleavage
1,G14A A134U,0.5
2,A18G G41A,1.53
3,C17U U38A,1.03
4,C16U A55G,1.63
5,G15A A51U,1.78
6,G15A A51G,1.52
7,A13U A54G,0.73
8,A18U A22G,1.12
9,G15U U72G,0.36
10,A13U A47U,1.24
11,G14A A33U,1.16
12,A18G U103G,0.05
13,A18G U103A,1.13
14,A18C A96U,0.98
15,A13G A140C,1.31
16,A13G A140G,0.62
17,C17A A24G,1.64
18,A18U A64G,0.9
19,A18G A110U,1.32
20,G15A U43C,1.35
21,A18U A82G,0.46
22,C16G A68G,0.69
23,C16U U72A,0.53
24,A18C U103C,0.86

row,Variant,self-cleavage
1,C16U A96G,1.27
2,G14A A111G,0.01
3,A13U A90C,1.69
4,C16U A118G,1.16
5,A18G C71U,0.22
6,G15A A23G,0.9
7,A13G A116G,0.55
8,A13G A118C,0.41
9,A13G U26C,0.93
10,A18U A59U,0.69
11,A18U A59G,1.2
12,G15A U131G,1.44
13,G15A U122C,0.95
14,A13U A82U,0.24
15,G14A U19A,0.91
16,A18U A24G,1.31
17,A13U U132C,2.18
18,A13U U132A,0.96
19,A18G A134U,1.88
20,A18U A62G,1.37
21,A18U A62C,0.88
22,A18U A62U,1.56
23,A18G U57G,1.21
24,C17A A56G,2.2

row,Variant,self-cleavage
1,G15C G83A,2.06
2,G15C G73A,0.17
3,A18G U39A,1.96
4,A18G U39C,1.77
5,C16A G83U,0.41
6,A18C A68U,1.04
7,C17U A30G,1.03
8,G15C,1.05
9,G15U,0.69
10,G15A,0.92
11,C17A,1.46
12,C17U,0.8
13,A18G G44A,1.66
14,A18C U127C,0.63
15,G14C A118G,0.43
16,A18G A94U,1.4
17,A13G C61U,0.68
18,A13G G65A,1.2
19,A13G C107A,0.19
20,G15A U120A,1.72
21,G15A U120C,1.01
22,G14U A52U,1.71
23,A13U A23G,1.43
24,A13U A111G,0.03

row,Variant,self-cleavage
1,A18U A69U,1.37
2,A18U A69G,1.92
3,C17U U43A,1.18
4,A18G U26A,1.1
5,C16U A23U,1.24
6,C16U A78G,0.62
7,C17U U132C,1.02
8,A13U U97C,1.4
9,G15U A69G,1.46
10,C16U A66U,1.27
11,A13G A135C,0.49
12,C17U A47U,1.43
13,A13U A67G,1.14
14,G14A A36U,0.83
15,A18G A23U,1.88
16,A13U C35A,1.88
17,G14C U127C,1.15
18,G14A C40A,1.54
19,A13G G75C,0.43
20,A18U A68G,0.74
21,A18U A68U,2.28
22,C16G A24G,0.51
23,A13U U49C,1.28
24,A13G U87A,0.92

row,Variant,self-cleavage
1,A18G U127A,1.64
2,A18G U127C,1.53
3,C16A A56C,0.52
4,G15A U19C,0
5,A18C A140G,0.94
6,C17U A23G,1.37
7,A18U A55C,1.22
8,G15U A56G,1.89
9,G14A A30G,2.84
10,C17U A129G,0.43
11,A18C A47G,0.59
12,G14U,1.11
13,G14C,1.4
14,G14A,1.24
15,A18G A36G,1.4
16,C16A U57G,0.88
17,A18G U49A,1.54
18,A18G U43C,1.52
19,A18G U43A,1.23
20,A18G U37C,1.04
21,A18U A52G,1.7
22,A13U A24G,1.06
23,A18G A47U,1.1
24,G15C A78U,0.37

row,Variant,self-cleavage
1,G15U U38A,1.8
2,A18G U131C,1.63
3,G14U A56G,1.18
4,C17U U108C,0
5,G14A C71U,0.37
6,G15A C113G,0.02
7,A18G A56G,1.27
8,A13G C88U,1.29
9,G15C A111G,0.01
10,A13G U37A,0.82
11,G14U A54G,1.65
12,A18G C101U,0.85
13,C16G U124A,0.77
14,G15A A68G,1.73
15,A18G A90G,1.36
16,A18G A90U,2.38
17,C16U A110U,0.72
18,A18G A89G,2.05
19,C16G A55G,0.86
20,G15A A118G,0.47
21,A18G U19A,1.57
22,A18G U19C,1.06
23,C16U U38C,0.76
24,A13U A117G,2.05

row,Variant,self-cleavage
1,A18C U57C,0
2,G14C U132C,1.04
3,G14U U38C,0.66
4,A18G G50A,0.74
5,C17U A110G,0.05
6,A18U A63G,0.84
7,C16U A140G,1.64
8,A18G A140G,0.55
9,A13U U108C,0.01
10,C17A U19C,0.87
11,A18G A126C,0.48
12,A18G A126U,0.44
13,C17U A66G,1.68
14,A18C A52G,1.51
15,A18G A64G,1.11
16,A18G A64U,1.92
17,A13U G80C,0.26
18,C16U G137A,0.85
19,A18G A91U,1.94
20,G14A A18G,1.29
21,G14C A89G,2.26
22,A13G U38C,1.14
23,G15A A66U,1.18
24,A18C A111G,0.02

row,Variant,self-cleavage
1,C17U A24U,1.29
2,A13G C109A,0.6
3,A13G U120C,0.6
4,A13G U120A,1.9
5,A13U U127C,0.75
6,G15A U72C,0.37
7,C17U U131A,0.93
8,C17U U131C,0.73
9,G14A A66G,0.8
10,A13U A129U,0.73
11,G15A A24G,1.4
12,A13U A18C,1.62
13,A13G U70G,1.1
14,A18C U130C,0.96
15,A13U A22G,1.38
16,A13U A22U,1.45
17,G15A A126G,1.51
18,C16U A54G,0.87
19,A18G A118U,0.64
20,A13G G104A,0.06
21,A13G U130C,0.83
22,A13G U130A,0.34
23,C17U U100A,0.96
24,C16U A114G,0.2

row,Variant,self-cleavage
1,A18U A36G,1.65
2,A18C A129G,0.75
3,G15A U108A,0.01
4,G15A U108C,0
5,C16U U39G,1.27
6,A13U A30G,1.26
7,A18G U87G,0.98
8,C17U A94G,1.32
9,G14A A63U,1.23
10,A13U C34U,1.2
11,A13G G123C,1.35
12,A13G G123U,1.33
13,G14A A23G,0.8
14,A18G G104A,0.02
15,A18C A95G,2.19
16,A18G A55G,1.07
17,C17U A118G,1.1
18,A18G U122C,1.32
19,A18G G48A,1.81
20,C17A U103C,1.08
21,C17U A18U,1.26
22,A18G U72C,0.38
23,A18G U72A,0.37
24,A18U A78U,0.45

row,Variant,self-cleavage
1,G15A A95G,1.73
2,A18G G79A,0.24
3,A18U A30G,1.39
4,G14A A90C,0.98
5,C16A U38C,0.92
6,A13U A66G,1.49
7,A18C U43C,1.44
8,C16U C85U,1.15
9,A13U A62G,0.9
10,G15C A51U,1.07
11,G14U A116G,0.63
12,A13U U38C,0.61
13,G15U U87A,1.44
14,G15C U108C,0.03
15,C17U U124A,1.1
16,A18G A69G,1.9
17,G15U A118G,1.88
18,C17A A135C,1.23
19,A18C U108C,0.01
20,A18G A63G,1.17
21,A18G A114U,0.14
22,A18G A114G,0.77
23,A18G C105U,0.29
24,A18G A95G,1.38

row,Variant,self-cleavage
1,A13U A110G,0.08
2,A13U A110U,1.26
3,G14A A110G,0.13
4,A13G A111G,0.15
5,G14U U102A,0.36
6,G14A G20A,1.49
7,C17U U102C,0.9
8,A13G C85U,0.89
9,A18G A86C,1.68
10,C16U G73A,0.15
11,A13G U127A,1.91
12,A13U G73A,0.16
13,C17U A114G,0.54
14,G14U U87C,1.48
15,A13G A117G,1.11
16,A18U A27C,1.5
17,A13G U72C,0.54
18,A13G A126U,0.88
19,A13G U103C,0.75
20,A18G A66G,1.81
21,A13U C107U,0
22,G14A U124C,0.47
23,A18G U132C,0.77
24,C17A A78G,0.1

row,Variant,self-cleavage
1,A13G U43C,0.98
2,A18U A47G,1.05
3,A18G U38G,1.56
4,C16G A89G,0.74
5,G15A A62G,0.1
6,A13U,1.11
7,C16A A22G,1.29
8,C17A A118G,0.97
9,G14A A78U,0.22
10,C16U A30U,1
11,C16U A30G,1.27
12,C17A A59U,1.14
13,C16A U39A,1.23
14,C16U U103C,0.77
15,C16G A95G,1.06
16,A18G A24U,1.6
17,A18G A24G,1
18,C16U U120C,1.42
19,A13G A129G,0.85
20,A13G G20A,0.94
21,C16A U102C,1.49
22,G15A A64U,1.37
